Publication PMC3526264, “The C-terminus of Dpb2 is required for interaction with Pol2 and for cell viability” (Nucleic Acids Research, 2012)

Molecular target: T1, Pol2 (S. cerevisiae, UniProt P21951 1-2222)
T1 construct: Pol2, catalytic subunit of DNA polymerase epsilon, S. cerevisiae; over-expression vector pJL1; also called catalytic subunit of DNA polymerase ε; source: S. cerevisiae pY116, galactose-induced over-expression (pJL1), co-expressed with the other Pol ε subunits
Test: co-purification (ion-exchange and size-exclusion chromatography); Pol2, Dpb2-201, Dpb3 and Dpb4 co-over-expressed in S. cerevisiae pY116; Pol ε purification protocol as in ref. 23; Coomassie-stained 10% SDS-PAGE, band intensities measured
Conditions: partners not purified

T1 sequence (P21951 whole entry): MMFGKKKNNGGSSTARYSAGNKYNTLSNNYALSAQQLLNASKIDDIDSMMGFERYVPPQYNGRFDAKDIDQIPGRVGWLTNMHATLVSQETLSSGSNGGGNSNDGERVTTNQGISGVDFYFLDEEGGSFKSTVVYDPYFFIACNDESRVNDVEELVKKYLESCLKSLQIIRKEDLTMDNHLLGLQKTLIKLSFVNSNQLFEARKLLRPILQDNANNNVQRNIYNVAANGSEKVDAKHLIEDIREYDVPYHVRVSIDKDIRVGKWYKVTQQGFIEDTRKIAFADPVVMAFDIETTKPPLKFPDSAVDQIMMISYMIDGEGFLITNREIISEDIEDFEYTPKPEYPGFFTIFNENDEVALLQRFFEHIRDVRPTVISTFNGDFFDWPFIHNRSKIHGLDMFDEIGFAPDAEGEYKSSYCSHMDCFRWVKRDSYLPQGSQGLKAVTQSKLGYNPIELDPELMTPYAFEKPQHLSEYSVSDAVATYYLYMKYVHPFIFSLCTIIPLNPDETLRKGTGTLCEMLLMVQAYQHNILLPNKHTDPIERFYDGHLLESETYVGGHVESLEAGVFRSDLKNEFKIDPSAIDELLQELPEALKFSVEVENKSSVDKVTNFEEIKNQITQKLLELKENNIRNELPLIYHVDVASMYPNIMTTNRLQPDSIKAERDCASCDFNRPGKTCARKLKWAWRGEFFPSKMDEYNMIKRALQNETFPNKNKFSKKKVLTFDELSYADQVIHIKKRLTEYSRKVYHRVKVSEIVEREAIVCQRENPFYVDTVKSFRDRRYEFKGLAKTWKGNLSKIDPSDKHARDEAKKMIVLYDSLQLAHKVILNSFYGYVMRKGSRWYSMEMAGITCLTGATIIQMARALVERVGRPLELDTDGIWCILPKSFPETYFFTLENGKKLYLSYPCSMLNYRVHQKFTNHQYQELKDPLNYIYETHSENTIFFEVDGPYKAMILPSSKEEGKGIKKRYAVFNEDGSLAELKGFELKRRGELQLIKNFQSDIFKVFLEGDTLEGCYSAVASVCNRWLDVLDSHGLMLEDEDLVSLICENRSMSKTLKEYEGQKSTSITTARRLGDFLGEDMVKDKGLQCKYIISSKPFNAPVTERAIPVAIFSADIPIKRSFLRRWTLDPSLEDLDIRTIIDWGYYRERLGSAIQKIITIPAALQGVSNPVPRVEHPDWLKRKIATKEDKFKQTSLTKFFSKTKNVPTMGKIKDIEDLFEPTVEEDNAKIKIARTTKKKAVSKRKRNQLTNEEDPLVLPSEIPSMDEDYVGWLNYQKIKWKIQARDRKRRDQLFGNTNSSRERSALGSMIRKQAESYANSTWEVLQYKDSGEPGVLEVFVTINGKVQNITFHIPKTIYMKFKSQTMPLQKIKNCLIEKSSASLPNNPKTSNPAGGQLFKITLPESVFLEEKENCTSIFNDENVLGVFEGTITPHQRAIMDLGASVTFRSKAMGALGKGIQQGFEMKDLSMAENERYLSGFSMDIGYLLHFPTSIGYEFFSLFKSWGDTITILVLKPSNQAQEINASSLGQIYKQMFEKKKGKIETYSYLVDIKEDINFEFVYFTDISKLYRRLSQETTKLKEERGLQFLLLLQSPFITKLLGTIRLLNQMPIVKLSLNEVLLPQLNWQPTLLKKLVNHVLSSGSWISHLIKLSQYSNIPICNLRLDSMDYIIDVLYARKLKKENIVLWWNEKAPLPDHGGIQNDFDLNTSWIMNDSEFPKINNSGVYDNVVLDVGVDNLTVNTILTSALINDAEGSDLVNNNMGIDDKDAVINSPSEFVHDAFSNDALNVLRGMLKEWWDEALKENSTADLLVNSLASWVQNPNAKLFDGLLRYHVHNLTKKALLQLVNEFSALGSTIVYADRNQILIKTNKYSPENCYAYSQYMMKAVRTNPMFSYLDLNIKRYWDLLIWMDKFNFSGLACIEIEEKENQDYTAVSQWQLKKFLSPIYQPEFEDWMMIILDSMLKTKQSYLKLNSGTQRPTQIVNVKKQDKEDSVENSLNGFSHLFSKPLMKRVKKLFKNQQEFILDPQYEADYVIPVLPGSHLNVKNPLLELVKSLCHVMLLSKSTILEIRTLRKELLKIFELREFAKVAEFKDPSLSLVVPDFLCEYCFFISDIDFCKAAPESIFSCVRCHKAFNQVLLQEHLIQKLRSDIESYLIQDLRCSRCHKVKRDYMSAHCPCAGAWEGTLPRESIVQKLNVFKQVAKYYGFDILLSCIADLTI

B1: Dpb4 (natural protein, S. cerevisiae, UniProt Q04603 1-196, looked up)
chain: MPPKGWRKDAQGNYPTTSYIKEQENITIQDLLFPKSTIVNLAREVPQQSGKKLLINKDASLALQRGATVFVNHLLLFAREIAKSQDKKSCSVDDVLSALDHIGHSALKGPVRDKLDEYQAAVEQRKKEKLDSGEVDADGDIDMGEDKENVPVEKVKEHDEIEEQGDALQDVEESSEKKQKTESQDVETRVQNLEQT
notes: Dpb4, subunit of DNA polymerase epsilon, S. cerevisiae; over-expression vector pJL5 (Dpb3 and Dpb4); source: S. cerevisiae pY116, galactose-induced over-expression (pJL5), co-expressed with the other Pol ε subunits
stoichiometry N: ~1.4 Dpb4 per Pol2

B2: Dpb3 (natural protein, S. cerevisiae, UniProt P27344 1-201, looked up)
chain: MSNLVKEKAPVFPISKVKKIAKCDPEYVITSNVAISATAFAAELFVQNLVEESLVLAQLNSKGKTSLRLSLNSIEECVEKRDNFRFLEDAIKQLKKNSALDKKRELNMQPGRSDQEVVIEEPELHEDDGVEEEEEEDEVSEEEEPVHNEELLDDSKDQQNDKSTRSVASLLSRFQYKSALDVGEHSDSSDIEVDHTKSTDP
notes: Dpb3, subunit of DNA polymerase epsilon, S. cerevisiae; over-expression vector pJL5 (Dpb3 and Dpb4); source: S. cerevisiae pY116, galactose-induced over-expression (pJL5), co-expressed with the other Pol ε subunits
stoichiometry N: ~1.1 Dpb3 per Pol2
